In this experiment the target is T1, His-tagged recombinant human glycyl-tRNA synthetase (GRS), 685 amino acids (human, UniProt P41250 55-739).
T1 construct: Expressed in E. coli; also called His-GRS; his-tagged GRS; not shown: His tag from vector pET-28a (EcoRI/XhoI)
T1 sequence: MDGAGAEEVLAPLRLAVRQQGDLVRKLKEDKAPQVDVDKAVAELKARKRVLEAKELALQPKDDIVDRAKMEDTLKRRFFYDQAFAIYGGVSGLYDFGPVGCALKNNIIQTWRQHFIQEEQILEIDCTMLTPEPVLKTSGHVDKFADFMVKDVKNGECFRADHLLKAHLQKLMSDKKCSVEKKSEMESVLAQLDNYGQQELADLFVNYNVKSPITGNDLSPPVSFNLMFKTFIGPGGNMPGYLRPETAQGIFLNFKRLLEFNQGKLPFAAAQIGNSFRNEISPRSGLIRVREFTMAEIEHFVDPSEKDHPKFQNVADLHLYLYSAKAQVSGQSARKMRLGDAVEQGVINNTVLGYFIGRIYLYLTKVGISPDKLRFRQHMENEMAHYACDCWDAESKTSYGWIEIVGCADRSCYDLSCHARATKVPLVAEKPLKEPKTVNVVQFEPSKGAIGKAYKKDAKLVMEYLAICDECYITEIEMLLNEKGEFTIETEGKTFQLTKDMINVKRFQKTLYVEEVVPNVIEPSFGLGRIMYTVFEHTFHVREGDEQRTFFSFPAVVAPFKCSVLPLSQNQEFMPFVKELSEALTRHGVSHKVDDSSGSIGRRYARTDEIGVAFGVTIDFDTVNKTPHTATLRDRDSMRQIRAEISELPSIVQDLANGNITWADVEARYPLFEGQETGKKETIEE
Briefly: ELISA: plate coated with His-GRS or BSA, Fc-fused cadherin added, detected with anti-human IgG1 Fc-HRP; axis OD 490nm. On the procedure:
(A) A panel of Fc-fused soluble cadherin family proteins was bound to His-tagged GRS or to BSA-coated plates, and complexes were detected with the IgG1 Fc-HRP (Thermo) reagent. (B) To confirm the binding between cadherins and GRS, Fc-CDH2, 6 and 18 were incubated with His-GRS. Fc-CDHs were precipitated with protein A/G agarose and co-precipitated GRS was determined by immunoblotting. (C) To calculate the equilibrium dissociation constant (IQ), immobilized Fc-fused (to gold chips) cadherins were incubated with GRS (31.25 nM˜1 uM). Binding of GRS to CDH6 was determined by surface plasmon resonance and expressed as resonance units (RU). (D) To confirm the binding between CDH6 and GRS domain peptides, Fc-CDH6 was incubated with different domains (F1, 2, 3 and 4) of GRS that were expressed as the GST fusion proteins. GST-GRS proteins were precipitated with GSH-sepharose beads and co-precipitated CDH6 was determined by immunoblotting. (E) Five difference cancers cells were determined for the expression of CDH6 by immunoblotting. (F) HCT116 cells were transfected with non-specific siRNA controls (si-con) or two differently designed siRNAs targeting CDH6 (#1 and #2), treated with biotinylated GRS (15 nM), and the binding of GRS was analyzed by immunoblotting. (G) HCT116 cells were transfected with si-con and si-CDH6 as described above, and cell binding of GRS was measured by FACS analysis. (H) HCT116 cells were incubated with His-GRS (150 nM). To neutralize the effects of GRS, Fc-fused CDH6 (300 nM) was added and the cell viability was determined by the MTT assay. Error bars represent standard deviation. (I) The binding between CDH6 and GRS domain peptides was again confirmed by ELISA assay.
To identifying the receptor of GRS, a Maxisorp plate (Nunc, Rochester, N.Y.) was used for an ELISA detection. The plate were coated with purified his-tagged GRS (1 ug/ml) or BSA (1 ug/ml) in phosphate buffer saline and then blocked (PBS, 4% non-fat milk). Fc-fusion cadherin family proteins (1 ug/ml) were added to the plate and after washing with PBST (0.05% Tween20), the plates were incubated with anti-human IgG1 Fc-HRP (Thermo, Waltham, Mass.). […]

B1: CDH1 (Fc fusion, not shown: a dimerising Fc or GST; small tags and cut ends)
chain: DWVIPPISCPENEKGPFPKNLVQIKSNKDKEGKVFYSITGQGADTPPVGVFIIERETGWLKVTEPLDRERIATYTLFSHAVSSNGNAVEDPMEILITVTDQNDNKPEFTQEVFKGSVMEGALPGTSVMEVTATDADDDVNTYNAAIAYTILSQDPELPDKNMFTINRNTGVISVVTTGLDRESFPTYTLVVQAADLQGEGLSTTATAVITVTDTNDNPPIFNPTTYKGQVPENEANVVITTLKVTDADAPNTPAWEAVYTILNDDGGQFVVTTNPVNNDGILKTAKGLDFEAKQQYILHVAVTNVVPFEVSLTTSTATVTVDVLDVNEAPIFVPPEKRVEVSEDFGVGQEITSYTAQEPDTFMEQKITYRIWRDTANWLEINPDTGAISTRAELDREDFEHVKNSTYTALIIATDNGSPVATGTGTLLLILSDVNDNAPIPEPRTIFFCERNPKPQVINIIDADLPPNTSPFTAELTHGASANWTIQYNDPTQESIILKPKMALEVGDYKINLKLMDNQNKDQVTTLEVSVCDCEGAAGVCRKAQPVEAGLQIPA
notes: one of the remaining CDHs (group m5); also called Fc-CDH1; Fc-fused soluble cadherin-1
Consider B1, for which the binding result is “no binding (tested: 1 ug/ml (single concentration))”.

B2: CDH13 (Fc fusion, not shown: a dimerising Fc or GST; small tags and cut ends)
chain: SIVVSPILIPENQRQPFPRDVGKVVDSDRPERSKFRLTGKGVDQEPKGIFRINENTGSVSVTRTLDREVIAVYQLFVETTDVNGKTLEGPVPLEVIVIDQNDNRPIFREGPYIGHVMEGSPTGTTVMRMTAFDADDPATDNALLRYNIRQQTPDKPSPNMFYIDPEKGDIVTVVSPALLDRETLENPKYELIIEAQDMAGLDVGLTGTATATIMIDDKNDHSPKFTKKEFQATVEEGAVGVIVNLTVEDKDDPTTGAWRAAYTIINGNPGQSFEIHTNPQTNEGMLSVVKPLDYEISAFHTLLIKVENEDPLVPDVSYGPSSTATVHITVLDVNEGPVFYPDPMMVTRQEDLSVGSVLLTVNATDPDSLQHQTIRYSVYKDPAGWLNINPINGTVDTTAVLDRESPFVDNSVYTALFLAIDSGNPPATGTGTLLITLEDVNDNAPFIYPTVAEVCDDAKNLSVVILGASDKDLHPNTDPFKFEIHKQAVPDKVWKISKINNTHALVSLLQNLNKANYNLPIMVTDSGKPPMTNITDLRVQVCSCRNSKVDCNAAG
notes: one of the remaining CDHs (group m5); also called Fc-CDH13; Fc-fused soluble cadherin-13
Turning to B2, the binding result is “no binding (tested: 1 ug/ml (single concentration))”.

B3: CDH5 (Fc fusion, not shown: a dimerising Fc or GST; small tags and cut ends)
chain: DWIWNQMHIDEEKNTSLPHHVGKIKSSVSRKNAKYLLKGEYVGKVFRVDAETGDVFAIERLDRENISEYHLTAVIVDKDTGENLETPSSFTIKVHDVNDNWPVFTHRLFNASVPESSAVGTSVISVTAVDADDPTVGDHASVMYQILKGKEYFAIDNSGRIITITKSLDREKQARYEIVVEARDAQGLRGDSGTATVLVTLQDINDNFPFFTQTKYTFVVPEDTRVGTSVGSLFVEDPDEPQNRMTKYSILRGDYQDAFTIETNPAHNEGIIKPMKPLDYEYIQQYSFIVEATDPTIDLRYMSPPAGNRAQVIINITDVDEPPIFQQPFYHFQLKENQKKPLIGTVLAMDPDAARHSIGYSIRRTSDKGQFFRVTKKGDIYNEKELDREVYPWYNLTVEAKELDSTGTPTGKESIVQVHIEVLDENDNAPEFAKPYQPKVCENAVHGQLVLQISAIDKDITPRNVKFKFILNTENNFTLTDNHDNTANITVKYGQFDREHTKVHFLPVVISDNGMPSRTGTSTLTVAVCKCNEQGEFTFCEDMAAQVGVSIQ
notes: one of the remaining CDHs (group m5); also called Fc-CDH5; Fc-fused soluble cadherin-5
As for B3, the binding result is “no binding (tested: 1 ug/ml (single concentration))”.

B4: CDH11 (Fc fusion, not shown: a dimerising Fc or GST; small tags and cut ends)
chain: GWVWNQFFVIEEYTGPDPVLVGRLHSDIDSGDGNIKYILSGEGAGTIFVIDDKSGNIHATKTLDREERAQYTLMAQAVDRDTNRPLEPPSEFIVKVQDINDNPPEFLHETYHANVPERSNVGTSVIQVTASDADDPTYGNSAKLVYSILEGQPYFSVEAQTGIIRTALPNMDREAKEEYHVVIQAKDMGGHMGGLSGTTKVTITLTDVNDNPPKFPQSVYQMSVSEAAVPGEEVGRVKAKDPDIGENGLVTYNIVDGDGMESFEITTDYETQEGVIKLKKPVDFETKRAYSLKVEAANVHIDPKFISNGPFKDTVTVKISVEDADEPPMFLAPSYIHEVQENAAAGTVVGRVHAKDPDAANSPIRYSIDRHTDLDRFFTINPEDGFIKTTKPLDREETAWLNITVFAAEIHNRHQEAKVPVAIRVLDVNDNAPKFAAPYEGFICESDQTKPLSNQPIVTISADDKDDTANGPRFIFSLPPEIIHNPNFTVRDNRDNTAGVYARRGGFSRQKQDLYLLPIVISDGGIPPMSSTNTLTIKVCGCDVNGALLSCNAEAYILNAGLST
notes: one of the remaining CDHs (group m5); also called Fc-CDH11; Fc-fused soluble cadherin-11
For B4, the binding result is recorded as “no binding (tested: 1 ug/ml (single concentration))”.

B5: CDH16 (Fc fusion, not shown: a dimerising Fc or GST; small tags and cut ends)
chain: KAQPAELSVEVPENYGGNFPLYLTKLPLPREGAEGQIVLSGDSGKATEGPFAMDPDSGFLLVTRALDREEQAEYQLQVTLEMQDGHVLWGPQPVLVHVKDENDQVPHFSQAIYRARLSRGTRPGIPFLFLEASDRDEPGTANSDLRFHILSQAPAQPSPDMFQLEPRLGALALSPKGSTSLDHALERTYQLLVQVKDMGDQASGHQATATVEVSIIESTWVSLEPIHLAENLKVLYPHHMAQVHWSGGDVHYHLESHPPGPFEVNAEGNLYVTRELDREAQAEYLLQVRAQNSHGEDYAAPLELHVLVMDENDNVPICPPRDPTVSIPELSPPGTEVTRLSAEDADAPGSPNSHVVYQLLSPEPEDGVEGRAFQVDPTSGSVTLGVLPLRAGQNILLLVLAMDLAGAEGGFSSTCEVEVAVTDINDHAPEFITSQIGPISLPEDVEPGTLVAMLTAIDADLEPAFRLMDFAIERGDTEGTFGLDWEPDSGHVRLRLCKNLSYEAAPSHEVVVVVQSVAKLVGPGPGPGATATVTVLVERVMPPPKLDQESYEASVPISAPAGSFLLTIQPSDPISRTLRFSLVNDSEGWLCIEKFSGEVHTAQSLQGAQPGDTYTVLVEAQDTDEPRLSASAPLVIHFLKAPPAPALTLAPVPSQYLCTPRQDHGLIVSGPSKDPDLASGHGPYSFTLGPNPTVQRDWRLQTLNGSHAYLTLALHWVEPREHIIPVVVSHNAQMWQLLVRVIVCRCNVEGQCMRKVGRMKGMPTKLSA
notes: one of the remaining CDHs (group m5); also called Fc-CDH16; Fc-fused soluble cadherin-16
As for B5, the binding result is given as “no binding (tested: 1 ug/ml (single concentration))”.

B6: CDH20 (Fc fusion, not shown: a dimerising Fc or GST; small tags and cut ends)
chain: SWVWNQFFVLEEYTGTDPLYVGKLHSDMDRGDGSIKYILSGEGAGIVFTIDDTTGDIHAIQRLDREERAQYTLRAQALDRRTGRPMEPESEFIIKIQDINDNEPKFLDGPYVATVPEMSPVGTSVIQVTATDADDPTYGNSARVVYSILQGQPYFSVDSKTGVIRTALMNMDREAKEYYEVIIQAKDMGGQLGGLAGTTTVNITLSDVNDNPPRFPQKHYQMSVLESAPISSTVGRVFAKDLDEGINAEMKYTIVDGDGADAFDISTDPNFQVGIITVKKPLSFESKKSYTLKVEGANPHLEMRFLNLGPFQDTTTVHISVEDVDEPPVFEPGFYFVEVPEDVAIGTTIQIISAKDPDVTNNSIRYSIDRSSDPGRFFYVDITTGALMTARPLDREEFSWHNITVLAMEMNNPSQVGSVPVTIKVLDVNDNAPEFPRFYEAFVCENAKAGQLIQTVSAVDQDDPRNGQHFYYSLAPEAANNPNFTIRDNQDNTARILTRRSGFRQQEQSVFHLPILIADSGQPVLSSTGTLTIQVCSCDDDGHVMSCSPEAYMLPVSLSR
notes: one of the remaining CDHs (group m5); also called Fc-CDH20; Fc-fused soluble cadherin-20
Regarding B6, the binding result was “no binding (tested: 1 ug/ml (single concentration))”.

B7: CDH8 (Fc fusion, not shown: a dimerising Fc or GST; small tags and cut ends)
chain: GWVWNQMFVLEEFSGPEPILVGRLHTDLDPGSKKIKYILSGDGAGTIFQINDVTGDIHAIKRLDREEKAEYTLTAQAVDWETSKPLEPPSEFIIKVQDINDNAPEFLNGPYHATVPEMSILGTSVTNVTATDADDPVYGNSAKLVYSILEGQPYFSIEPETAIIKTALPNMDREAKEEYLVVIQAKDMGGHSGGLSGTTTLTVTLTDVNDNPPKFAQSLYHFSVPEDVVLGTAIGRVKANDQDIGENAQSSYDIIDGDGTALFEITSDAQAQDGIIRLRKPLDFETKKSYTLKVEAANVHIDPRFSGRGPFKDTATVKIVVEDADEPPVFSSPTYLLEVHENAALNSVIGQVTARDPDITSSPIRFSIDRHTDLERQFNINADDGKITLATPLDRELSVWHNITIIATEIRNHSQISRVPVAIKVLDVNDNAPEFASEYEAFLCENGKPGQVIQTVSAMDKDDPKNGHYFLYSLLPEMVNNPNFTIKKNEDNSLSILAKHNGFNRQKQEVYLLPIIISDSGNPPLSSTSTLTIRVCGCSNDGVVQSCNVEAYVLPIGLSM
notes: one of the remaining CDHs (group m5); also called Fc-CDH8; Fc-fused soluble cadherin-8
As to B7, the binding result is on record as “no binding (tested: 1 ug/ml (single concentration))”.

(Values after patent US20140220596A1 (MEDICINAL BIOCONVERGENCE RESEARCH CENTER, published 2014).)
